For 109 sequences, AmyQ secretion efficiency results are on record in the supplement of paper PMC9942255.

Where “and” joins values, the source holds several entries; their conditions need not be identical. Equal values may be shown once.

This data set has as its system Bacillus subtilis DB104 (SP-AmyQ fusion secretion). The experiment in a line: AmyQ secretion efficiency, weighted average sort bin (1 = best secretion, 10 = worst) (bin number (weighted average, 1-10)); higher = lower secretion efficiency. The method in brief:
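With fluorescein-starch as substrate, a B. subtilis DB104 library expressing mature AmyQ fused to designed signal peptides (integrated at amyE) was encapsulated at about 0.3 cells per ~65 nL alginate bead. After about 13 h at room temperature, beads were nile red stained, and occupied beads were sorted by large-particle flow cytometry into 10 equally populated bins by green/red fluorescence ratio. Illumina sequencing of the amplicons in each bin was used to calculate the secretion score, which is the read-frequency-weighted average bin number, normalised to beads per bin, with low-abundance sequences left out.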

MKLAKRVSALTPSTTLAITAKAAPL: the AmyQ secretion efficiency was determined as 8.19.

For MRKVITCVMAASLTLGSLLPAGYATAKED, the AmyQ secretion efficiency was 3.88.

In the case of MFNRLFRVCFLAALIMAFTLPNSDYAQKP, the AmyQ secretion efficiency worked out at 6.44. The same measure for MFNRLFRVCFLAALIMAFVLTFFVYAQKP: 5.95; for MSSKAWFLPLVCVLLISGWLAPAASASAQTT: 1.72; for MKKIVSILFMFGLVMGFSQFQPSTGFAADK: 3.91. The figure for MKRIRIPMTLALGAALTIAPLSFASAAKR is 4.18; for MRKKCSVCLWILVLLLSCKRGKSAYAATS it is 6.83. The sequence MKKAAAVLLSLGLVFGFSYGAEAKTK gave an AmyQ secretion efficiency of 2.21. For MKLSVKIAGVLTVAAAAMTAKMYFTAKGN, the AmyQ secretion efficiency amounted to 7.66. The same measure for MLKKIALTLCPAIVGSLLFFTGPASAHVS: 2.54. The same measure for MKKLLSAASLAFFAMSGSAQAAAY: 2.96; for MLCVMMLLFSAIASFPVSAQDKDQ: 6.19. The figure for MNLRKIILLSSALSLGMLVSAAPVLATSS is 2.82; for MRHKIITFILAVVVIIIIRKRKKRRGGSEATSK it is 4.98.

In the case of MKKAWFLPLVCVLLISGWLAPAASASAQTT, the AmyQ secretion efficiency was found to be 2.33. The figure for MRKKCSVCKKRRKRLLSCLSGKSAYAATS is 7.64.

MTKRGIQAFAGGIILATAVLAAVFRLTTFDQAAAV: the AmyQ secretion efficiency amounted to 5.37. MKWMCSICCAAVLLAGGATQAEAV yielded an AmyQ secretion efficiency of 2.86. The same measure for MKKLLAAGIIGLLTVEDDEDDSFAAEK: 8.23; for MKKMLMLAFTFLLALTIHVGEASAVRK: 2.01; for MKRIRIPMTLALGAALTIAPLSFESAEEN: 5.54. In the case of MKKWLIIAVSLAIAIVLFMYTAGEAKAAGM, the AmyQ secretion efficiency amounted to 2.74.

MKVPKTMLLSTAAGLLLSLTATSESAHYV: the AmyQ secretion efficiency amounted to 6.28. The figure for MKWCSICCAAVLLAGGAAQAEAV is 3.57; for MGLGKKLMVAVAAIFMMLMIFLPGVQAAEG it is 1.54. The same measure for MKRTLPLLIVCLAFSSFSASARAASE: 2.25. Turning to MKKAAAVLLSLGLVFFLLTSGFSYGAGHVAEAKTK, the AmyQ secretion efficiency turned out to be 3.03.

MKKKIRRRKAVSAVVGSSMAAAPAEAKTI returned an AmyQ secretion efficiency of 5.54.

Consider MKRKRRKMACLILFSFTITTFINTETISAFSN, for which the AmyQ secretion efficiency worked out at 2.31.

MRMLWRSLALCGLALTLAPCCQAAEP registered an AmyQ secretion efficiency of 1.93. Sequence MRKKRAVLLSLIMLIAGFLISFSFQM returned an AmyQ secretion efficiency of 7.34. Turning to MKNMSKLVVSVTLFFSFLTIGPLAHAQNS, the AmyQ secretion efficiency worked out at 1.41. The same measure for MRSYIKVLTMCFLGLILFVPTALMDNS: 6.46; for MNKKYFVLIVCIIFTSALFPTRRKKKRVTAAQG: 8.37; for MLCVMMLLFSAIASFPVSKQAKDQ: 7.19. The figure for MSKKTWMVGLLAGCLAAGGFSYNAFATEN is 4.68; for MKKKLAAGLTASAIVGTTLVVTPAEDATI it is 6.33; for MGLGTTFLSVAVAASFMSLSISLPGVQAAEG it is 2.45.

In turn, MKLKKRVSMFLVALTMCGGLFVTPVKAVKT came in with an AmyQ secretion efficiency of 2.64. The figure for MKKKIVAGLAVSAVVDEDEEAAPAEAKTI is 5.93; for MRSKKLWISLLFALTLIFTMAFSNMSAQPAGK it is 3.56. The figure for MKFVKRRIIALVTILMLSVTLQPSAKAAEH is 3.15. The same measure for MKLWMRKTLVVLFTIVTFGLVSPPAALMCDKP: 2.74; for MKSKGSIMACLILFSFTITTFINTETISAFRR: 6.09. Consider MKNMSCKLVVSVTLFFSFLDEDPLAHAQNS, for which the AmyQ secretion efficiency stood at 2.75.

MRSKKLWISLLFALTLIRKRKKRNMSAQAAGK registered an AmyQ secretion efficiency of 9.84. The figure for MRKKLKWLSFLLGFIILLFLFKYQFSSNDS is 5.44. The figure for MRSYIKVLTMCFLGLILFVPTSLADNS is 2.69.

For the sequence MKKRFFGPIILAFILFAGAIAIEE, the AmyQ secretion efficiency turned out to be 6.41. MKKAAAVLLSLGLVFIFVFAAVHVAEAKTK: the AmyQ secretion efficiency was determined as 2.59. The same measure for MRKKRTSNFNMIVITCVMAASLTLGSLLPAGYATAKED: 3.08; for MKRIRIPMTLALGAALTISFASAEEN: 6.71; for MRMLWRMLALCLLALLLAPCAQAAEP: 1.73. The figure for MLCKKMLLFSAIASFPVSAQAKDQ is 4.84. The figure for MRMLWRSLALCGLALTLAPCPQAAEP is 6.73. In turn, MLCVMMLLFSAIASFPVSFTFPAFATAQAKDQ gave an AmyQ secretion efficiency of 7.71. Regarding MFNRLFRVCFLAALIMAFTLPNSQYAQKP, the AmyQ secretion efficiency amounted to 7.49. The sequence MRKRKKKSMLTVMIASLFIFSSQALAVQY displayed an AmyQ secretion efficiency of 6.79. For the sequence MHLIRAAGAVCLAVVLIRFNEDQHQAEGENT, the AmyQ secretion efficiency amounted to 5.07. The figure for MKRNLTITMFILVLSFLSIIVAYPIQTNASPM is 5.49; for MPYLKRLSIVLLLLVTGLFMSLFAVTATASAQTG it is 1.6; for MKKRLIGFLVLVPALIMSGITLIELNKK it is 6.99. The figure for MGMKKKLSLGVASAALGLALVGGGWWAAFN is 7.18; for MTMLRKIIGWILLLCIIPLFAFTVIASNKEV it is 5.99. The sequence MKSKWMSGLLLVAVGFSFTQVMTSFFTPASPVHAGET displayed an AmyQ secretion efficiency of 6.76. The figure for MKVLLSALLLLLFAFEPSDSGKKL is 6.13; for MKSKWMSGLLLVAVGFSFRKKKKKVHAGET it is 7.2. The figure for MKRTRIPMYLALGAALTIAPLSFASAEEN is 3.6. The same measure for MKLSVKIAGVLTVAAAAMIAIATTAKMYATAKGN: 5.63. MRGKSAVLLSLIMLIAGFLISFQFQM gave an AmyQ secretion efficiency of 7.36. The figure for MKRITINIITMFIAAAVIVFSLTGTAEAAEK is 2.39; for MKNMSCKLVVSVTLFFSFLTIGPLAHAQED it is 2.36; for MKKTIMSFVAVAALSTGAHASAKEI it is 2.46. The figure for MKKAFILSAAAAVGLFTFEEDEDEASAKEL is 4.76. On to MKKWIYVVLVLSIAGIGGFSVHGASS, for which the AmyQ secretion efficiency was determined as 7.27. The figure for MKKLVLCVSILAVILSGVLLTQLS is 5.53; for MKKKKKRIITATTAVVLGSTLFAGAASAQSI it is 1.46. As for MKKAFILSAAAAVGLFTFSIGGVQQASAKEL, the AmyQ secretion efficiency stood at 3.67.

MTMLRKIIGWILLLCIIPLFAFTVINSGKEV came in with an AmyQ secretion efficiency of 6.45. The same measure for MRSYIKVLTMCFLGLPTALADNS: 3.96.

With MKKIVSILFMFGLVMGFSQFQPSTVFARRK, the AmyQ secretion efficiency worked out at 5.68.

MKLAKRVRRKRPSTTLAITAKAKEL: the AmyQ secretion efficiency was 6.87.

With MKSKWMSGLLLVAVGFSFTQVMAHAGET, the AmyQ secretion efficiency was found to be 7.06. The figure for “MRPVFPLILSAVLFLSCFSTSVAITVTFGARQTEASASKR” is 3.9. The figure for MGSSLAAGLTASAIVGTTLVVTPAEAATI is 4.99; for MKKWKQTQQSGIAAAISIFVYVSTGSEK it is 7.55. The figure for MKKKRLLLATSALTFSLSLVLPLDGHAKAQEV is 2.9; for “MKRIRIPMTLALGAALTIAPLSFPATVPGAGGTTASAEEN” it is 4.38. The sequence MKQFAITLSVLCALILLVPTLLVIPFQHNKEAPASV showed an AmyQ secretion efficiency of 8.36. Turning to MKLAKRVSALTPSTTLAITWKAKEL, the AmyQ secretion efficiency was 5.85. The same measure for MKLWMRKTLRRLFTIVTFGLVSPPAALMADKP: 7.18. The same measure for MRPVFPLILSAVLFLSCFFGARQTEASDSKR: 2.12; for MKWMCSICCAAVLGAAQAEAV: 4.75; for MNFKKTTSIVVSALSISALALSVSGVASAHEI: 3.35. On to MKRRKRRYLLLGILCSAAVFLIGAPSRALGAEV, for which the AmyQ secretion efficiency came out at 1.61. The same measure for MKRFSTAYLLLGILCSAAVFLIKRPSRALGAEV: 6.46; for MKKSQYFKRRKCFFVLFSVHPIAAAAADS: 9.07; for MLKKVILAAFILVGSTLGEDSFSSDASAKHV: 4.32. The same measure for MKKIVSILFMFGLVMGFSQFQPSTVFAADK: 3.41 and 2.54; for MKKQIITATTAVVLGSTLFAGAASYQSI: 6.33; for MNLRKTYGSSALSLGMLVSAAPVLATSS: 6.93. The same measure for MKKSQYFIVFICFFVLFSVHPIAEAAADS: 3.62; for MGSRTIWTIILGALLVCCIAVAYTLTKSQAGASSS: 5.01; for MKLWMRKTLVVLFTIVTFGLVSPPAAEMADKP: 2.41. For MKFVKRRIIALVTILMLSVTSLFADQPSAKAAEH, the AmyQ secretion efficiency worked out at 3.52. As to MMIKQCVICLSLLVFGTTAAHSEET, the AmyQ secretion efficiency came out at 4.24.

As for MPYLKRVLLLLVTGLFMSLFAVTATASQQTG, the AmyQ secretion efficiency stood at 1.51. For the sequence MKKCRKSIKRFLVSLIIGTFVISVPFMANAQSD, the AmyQ secretion efficiency turned out to be 1.76.
